B1: Pistol ribozyme (parent)
chain: GGGUCGUUGUUCCAUAAUCGCGUGGAUAUGGCACGCAAGUUUCUACCGGGCACCGUAAAUGUCCGACUGGAGCCGUUCGGGCGGCUAUAAACAGACCUCAGGCCCGAAGCGUGGCGGCACCUGCCGCCGGUGGUAAAAAAGAUCGGAAGAGCACACGUCU

Variants of: B1
Test: aptazyme ON/OFF ratio, guanine; higher = stronger switching; co-transcriptional cleavage with and without guanine

Going from U7C U8G G9U U10G U11C C13U to U7C U8G G9U U10G U11C C13G, the “aptazyme ON/OFF ratio” value falls from 1.16 to 1.14.

First: U7C U8G G9U U10G U11C C13A
Second: U7C U8G U10G U11C C12U
The “aptazyme ON/OFF ratio” value of the first is higher: 1.17 for the first, 1.16 for the second.

First: U7C U8G U10G U11C C12A
Second: U7C U8G U10G U11C C12G
The “aptazyme ON/OFF ratio” value of the first is lower: 1.34 for the first, 1.55 for the second.

First: U7C U8G U10A U11G C12U C13U
Second: U7C U8G U10A U11G C12U C13G
The “aptazyme ON/OFF ratio” value of the first is higher: 1.17 for the first, 1.08 for the second.

Compared with U7C U8G U10A U11G C12U C13A, U7C U8G G9U U10G U11A C13U is higher in “aptazyme ON/OFF ratio” value: 1.07 for the first, 1.12 for the second.

First: U7C U8G U10G C13A
Second: U7C U8G U10G C13G
The “aptazyme ON/OFF ratio” value of the first is higher: 1.4 for the first, 1.29 for the second.

Going from U7C U8G U10G C13U to U7C U8G U11C, the “aptazyme ON/OFF ratio” value rises from 1.35 to 3.13.

First: U7C U8G U11A
Second: U7C U8G U11G
The “aptazyme ON/OFF ratio” value of the first is higher: 1.88 for the first, 1.2 for the second.

First: U7C U8G U10A C12A
Second: U7C U8G U10A C12U
The “aptazyme ON/OFF ratio” value of the first is lower: 1.41 for the first, 2.01 for the second.

Compared with U7C U8G U10A C12G, U7C U8G U11C C12A C13A is higher in “aptazyme ON/OFF ratio” value: 1.18 for the first, 1.28 for the second.

Compared with U7C U8G U11C C12A C13G, U7C U8G U11C C12A C13U is higher in “aptazyme ON/OFF ratio” value: 1.15 for the first, 1.34 for the second.

First: U7C U8G U10G U11A C12G C13U
Second: U7C U8G U10G U11A C12G C13A
The “aptazyme ON/OFF ratio” value of the first is higher: 1.14 for the first, 1.1 for the second.

U7C U8G U10G U11A C12G C13G and U7C U8G U10G U11A C12A are the same in “aptazyme ON/OFF ratio” value: 1.21 for the first, 1.21 for the second.

First: U7C U8G U10G U11A C12U
Second: U7C U8G U10G U11A C12G
The “aptazyme ON/OFF ratio” value of the first is higher: 1.37 for the first, 1.14 for the second.

Going from U7C U8G U10G C12A to U7C U8G U10G C12G, the “aptazyme ON/OFF ratio” value rises from 1.21 to 1.36.

First: U7C U8G U10G C12U
Second: U7C U10A C12G C13G
The “aptazyme ON/OFF ratio” value of the first is higher: 1.24 for the first, 1.14 for the second.

Going from U7C U10A C12G C13A to U7C U10A C12G C13U, the “aptazyme ON/OFF ratio” value rises from 1.18 to 1.23.

First: U7C U8G U10A U11A
Second: U7C U8G U10A U11G
The “aptazyme ON/OFF ratio” value of the first is higher: 2.1 for the first, 1.35 for the second.

First: U7C U8G U10A U11C
Second: U7C U8G U11A C13G
The “aptazyme ON/OFF ratio” value of the first is lower: 1.04 for the first, 1.07 for the second.

First: U7C U8G U11A C13A
Second: U7C U8G U11A C13U
The “aptazyme ON/OFF ratio” value of the first is lower: 1.07 for the first, 1.16 for the second.

U7C U8G G9U U10G U11G C12G and U7C U8G G9U U10G U11G C12A are the same in “aptazyme ON/OFF ratio” value: 1.22 for the first, 1.22 for the second.

Going from U7C U8G G9U U10G U11G C12U to U7C U8G G9U U11G C12A C13U, the “aptazyme ON/OFF ratio” value falls from 1.28 to 1.21.

Compared with U7C U8G G9U U11G C12A C13A, U7C U8G G9U U11G C12A C13G is higher in “aptazyme ON/OFF ratio” value: 1.17 for the first, 1.24 for the second.

U7C U8G U10C C12A and U7C U8G U10C C12G are the same in “aptazyme ON/OFF ratio” value: 2.01 for the first, 2.01 for the second.

First: U7C U8G U10C C12U
Second: U7C U8G U10G U11G C12A C13A
The “aptazyme ON/OFF ratio” value of the first is higher: 1.38 for the first, 1.11 for the second.

Compared with U7C U8G U10G U11G C12A C13U, U7C U8G U10G U11G C12A C13G is lower in “aptazyme ON/OFF ratio” value: 1.26 for the first, 1.19 for the second.

First: U7C U8G U10C U11G C13G
Second: U7C U8G U10C U11G C13A
The “aptazyme ON/OFF ratio” value of the first is lower: 1.1 for the first, 1.39 for the second.

Compared with U7C U8G U10C U11G C13U, U7C U8G U10C C12A C13G is lower in “aptazyme ON/OFF ratio” value: 2.15 for the first, 1.1 for the second.

Compared with U7C U8G U10C C12A C13U, U7C U8G U10C C12A C13A is lower in “aptazyme ON/OFF ratio” value: 1.67 for the first, 1.28 for the second.

Going from U7C U8G U10A C12G C13G to U7C U8G U10A C12G C13U, the “aptazyme ON/OFF ratio” value rises from 1.1 to 1.18.

U7C U8G U10A C12G C13A and U7C U8G U10A U11C C12A are the same in “aptazyme ON/OFF ratio” value: 1.13 for the first, 1.13 for the second.

Going from U7C U8G U10A U11C C12G to U7C U8G U10A U11C C12U, the “aptazyme ON/OFF ratio” value falls from 1.18 to 1.04.

Going from U7C U8G U10C U11C C12A C13A to U7C U8G U10C U11C C12A C13U, the “aptazyme ON/OFF ratio” value falls from 1.16 to 1.15.

First: U7C U8G U10C U11C C12A C13G
Second: U7C U8G G9U U10G U11G
The “aptazyme ON/OFF ratio” value of the first is lower: 1.14 for the first, 1.18 for the second.

Going from U7C U8G G9U U10G U11C to U7C U8G U10C U11A, the “aptazyme ON/OFF ratio” value rises from 1.07 to 2.93.

Compared with U7C U8G U10C U11C, U7C U8G U10C U11G is lower in “aptazyme ON/OFF ratio” value: 3.48 for the first, 2 for the second.

Compared with U7C U8G U10C C13G, U7C U8G U10C C13A is lower in “aptazyme ON/OFF ratio” value: 2.71 for the first, 1.86 for the second.

Compared with U7C U8G U10C C13U, U7C U8G U10C C12U C13G is lower in “aptazyme ON/OFF ratio” value: 1.54 for the first, 1.3 for the second.

First: U7C U8G U10C C12U C13U
Second: U7C U8G U10C C12U C13A
The “aptazyme ON/OFF ratio” value of the first is higher: 2.3 for the first, 1.61 for the second.

Compared with U7C U8G G9U U11C C13G, U7C U8G G9U U11C C13U is higher in “aptazyme ON/OFF ratio” value: 1.02 for the first, 1.09 for the second.

Compared with U7C U8G G9U U11C C13A, U7C U8G U10A U11A C12U C13U is higher in “aptazyme ON/OFF ratio” value: 1.12 for the first, 1.16 for the second.

First: U7C U8G U10A U11A C12U C13G
Second: U7C U8G U10A U11A C12U C13A
The “aptazyme ON/OFF ratio” value of the first is lower: 1.12 for the first, 1.16 for the second.

From the RNAGym collection of RNA variant scans (doi:10.1021/acssynbio.7b00057)
